The values below come from IntAct's records for PubMed 16763556.

Experiment [1] deals with T1, poli_human POLI (UniProt Q9UNA4).
T1 sequence: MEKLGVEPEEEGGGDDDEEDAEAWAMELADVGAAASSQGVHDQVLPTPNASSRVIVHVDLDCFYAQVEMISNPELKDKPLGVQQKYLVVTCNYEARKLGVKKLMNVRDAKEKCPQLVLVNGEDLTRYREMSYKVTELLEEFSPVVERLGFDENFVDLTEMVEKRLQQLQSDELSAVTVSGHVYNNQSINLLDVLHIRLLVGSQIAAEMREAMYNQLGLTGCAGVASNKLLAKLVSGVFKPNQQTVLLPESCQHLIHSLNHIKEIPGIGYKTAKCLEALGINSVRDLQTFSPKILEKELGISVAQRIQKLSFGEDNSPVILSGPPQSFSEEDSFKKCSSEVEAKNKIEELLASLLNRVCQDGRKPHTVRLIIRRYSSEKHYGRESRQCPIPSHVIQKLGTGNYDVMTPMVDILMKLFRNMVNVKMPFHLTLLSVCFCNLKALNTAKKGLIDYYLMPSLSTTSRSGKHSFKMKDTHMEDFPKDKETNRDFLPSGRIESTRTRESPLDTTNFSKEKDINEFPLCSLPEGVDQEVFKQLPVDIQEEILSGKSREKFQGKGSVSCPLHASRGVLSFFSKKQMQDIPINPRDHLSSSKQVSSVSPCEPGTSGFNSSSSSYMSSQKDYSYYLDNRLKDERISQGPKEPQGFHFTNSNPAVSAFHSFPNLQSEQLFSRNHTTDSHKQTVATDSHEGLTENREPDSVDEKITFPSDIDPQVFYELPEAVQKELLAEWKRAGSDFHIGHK

The target of experiment [2] is T2, polh_human POLH (UniProt Q9Y253).
T2 sequence: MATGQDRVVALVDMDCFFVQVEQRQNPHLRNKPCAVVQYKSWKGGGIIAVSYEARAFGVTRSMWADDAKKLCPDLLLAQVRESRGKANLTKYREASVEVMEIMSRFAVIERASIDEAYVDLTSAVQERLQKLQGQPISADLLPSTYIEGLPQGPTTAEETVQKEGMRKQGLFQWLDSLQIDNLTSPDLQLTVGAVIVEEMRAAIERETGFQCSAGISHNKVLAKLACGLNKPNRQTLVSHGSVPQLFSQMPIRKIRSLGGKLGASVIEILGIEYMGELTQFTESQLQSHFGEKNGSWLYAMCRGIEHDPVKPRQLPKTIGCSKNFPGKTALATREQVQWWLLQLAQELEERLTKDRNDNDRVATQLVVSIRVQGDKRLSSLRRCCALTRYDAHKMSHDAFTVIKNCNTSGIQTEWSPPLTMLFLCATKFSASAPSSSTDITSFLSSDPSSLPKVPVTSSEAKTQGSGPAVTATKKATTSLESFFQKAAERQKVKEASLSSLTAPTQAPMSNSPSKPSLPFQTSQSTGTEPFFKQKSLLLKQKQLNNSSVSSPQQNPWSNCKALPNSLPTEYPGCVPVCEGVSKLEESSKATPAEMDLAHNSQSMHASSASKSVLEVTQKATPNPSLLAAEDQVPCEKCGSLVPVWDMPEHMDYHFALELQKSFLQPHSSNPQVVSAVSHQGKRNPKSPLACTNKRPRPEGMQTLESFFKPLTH

Turning to “Polyubiquitin-C (Homo sapiens) (from UniProt P0CG48) G75S”, the “effect of a mutation on the interaction” value in experiment [1] and in experiment [2] was “disrupting interaction” in each case.

With “Polyubiquitin-C (Homo sapiens) (from UniProt P0CG48) G76S”, the “effect of a mutation on the interaction” value in experiment [1] and in experiment [2] was “disrupting interaction” throughout.
